Positions count from the first letter of the chain named.

In test [1] the target is T1, extracellular domain (ECD) of Her2 (ErbB2) (human, UniProt P04626 23-652).
T1 construct: Target as named in the sentence on the thirty-one scFvs; also called ECD region of Her2
In words: three rounds of selection and screening ELISA, soluble periplasmic scFv. A general note: An ELISA detects its analyte on a solid surface through an enzyme-linked reagent.

The target of test [2] is T1, extracellular domain (ECD) of Her2 …. In words: three rounds of selection and screening ELISA, scFv on phage.

B1: S1R3A1_CS_1B12 (scFv, V domains shown)
VH: QVQLVQSGAEVKKPGASVKVSCQASGYTFSGHYMHLVRQAPGQGLEWMGWIHPTSGGTTYAQKFQGRVVMTRDTSISTAYMELSRLTSDDTAVYYCARMSQNYDAFDIWGQGTMVTVSS
VL: QAVLTQPSSVSGAPGQRVTISCTGSSSNIGAGYDVNWYQQFPGTAPKIIVYGDRPSGAPDRFSGSKSGTSASLAITGLRAEDEADYYCQSWDSRLSSYVFGTGTKVTVLG
notes: scFv (one chain), soluble from the bacterial periplasm in the screening; also called Her2_S1R3A1_CS_1B12
Turning to B1, the binding result in test [1] is “binds”.

B2: S1R3C1_DP47_1H1 (scFv, V domains shown)
VH: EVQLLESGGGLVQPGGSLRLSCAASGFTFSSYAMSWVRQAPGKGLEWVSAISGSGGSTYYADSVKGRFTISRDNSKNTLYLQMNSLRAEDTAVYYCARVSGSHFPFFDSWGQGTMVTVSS
VL: QSVLTQPPSVSVAPGQTARITCGGDKIGHKSVHWYQQKPGQAPVLLVYDDRKRPSGIPERFSGSNSGNTATLTISRVEAGDEAAYHCQVWDRSSDPYVFGTGTKVTVLG
notes: scFv (one chain), soluble from the bacterial periplasm in the screening; also called Her2_S1R3C1_DP47_1H1
On to B2, for which the binding result in test [1] is “binds”.

B3: S1R3C1_CS_1D3 (scFv, V domains shown)
VH: QVQLQESGPGLVKPSQTLSLTCGISGDSVSSNSAAWNWIRQSPTRGLEWLGRTYYRSSWYHNYAPSMNSRLTIIADTSKNQFSLQLNSVTPEDTAVYYCASGWAFDVWGRGTLVTVSS
VL: QSVLTQPPSASGSPGQSVTISCTGTSSDVGAYDFVSWYQQHPGKAPKLMIYEVNKRPSGVPDRFSGSKSGNTASLTVSGLQAEDEADYYCSSYAGSKNLLFGGGTKLTVLG
notes: also called Her2_S1R3C1_CS_1D3
As for B3, in test [2], the binding result is “binds”.

B4: S1R3B2_DP47_1E10 (scFv, V domains shown)
VH: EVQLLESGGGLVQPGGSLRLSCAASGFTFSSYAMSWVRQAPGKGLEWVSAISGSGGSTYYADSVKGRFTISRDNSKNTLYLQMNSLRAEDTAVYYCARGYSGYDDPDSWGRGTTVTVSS
VL: HVILTQPPSTSGTPGQTVTISCSGSSSNIGSHYVYWYQQLPGTAPKLLIYRNNQRPSGVPDRFSGSKSGTSASLAISGLRSEDETDYYCAAWDDSLSGRVFGTGTKLTVLG
notes: also called Her2_S1R3B2_DP47_1E10
For the molecule B4, the binding result in test [2] is on record as “binds”.

B5: S1R3C1_CS_1A6 (scFv, V domains shown)
VH: EVQLVQSGAEVKKPGESLKISCKGFGYNFRSAWIGWVRQMPGKGLEWMGVIYPGDSDVRYSPSFQGQVTISADKSISTAYLQWSSLKASDTAMYYCTRPVGQWVDSDYWGKGTLVTVSS
VL: QSVLTQPPSASGTPGQRVTISCSGSSSNIGTNTVNWYQQLPGTAPKLLIYTSNQRPSGVPARFSASNSGTSASLAISGLRSEDEADYYCAAWDDKLSGAVFGGGTKLTVLG
notes: also called Her2_S1R3C1_CS_1A6
B5: the binding result in test [2] is reported as “binds”.

B6: S1R3A1_DP47_1A6 (scFv, V domains shown)
VH: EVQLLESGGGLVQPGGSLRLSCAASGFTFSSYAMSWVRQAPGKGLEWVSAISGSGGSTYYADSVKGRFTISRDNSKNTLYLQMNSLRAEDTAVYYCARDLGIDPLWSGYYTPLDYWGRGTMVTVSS
VL: HVILTQPPSASGTPGQRVTISCSGSSSNIGSNSVSWYQQLPGTAPKLLMYTNNQRPSGVPDRFSGSKSGTSASLAISGLQSEDEADYYCATWDASLNTWVFGGGTKVTVLG
notes: scFv (one chain), soluble from the bacterial periplasm in the screening; also called Her2_S1R3A1_DP47_1A6
For B6, in test [1], the binding result is “binds”.

B7: S1R2C_CS_1H12 (scFv, V domains shown)
VH: EVQLVETGGGLVQPGGSLRLSCAASGFTFSSYGMNWVRQAPGKGLEWVSYISSSGNTIFYADSVKGRFTISRDSAKNSVSLQMNSLRDEDTAVYYCASYYSYYYGMDAWGQGTMVTV
VL: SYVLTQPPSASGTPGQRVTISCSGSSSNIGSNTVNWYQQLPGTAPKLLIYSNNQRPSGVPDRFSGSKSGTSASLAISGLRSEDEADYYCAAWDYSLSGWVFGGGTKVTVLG
With B7, the binding result in test [2] is reported as “binds”.

B8: S1R3C1_BMV_1H11 (scFv, V domains shown)
VH: GVQLVESGGGLVKPGGSLRLSCAASGFTFSSYNMNWVRQAPGKGLEWVSAISGSGGSTYYADSVTGRFTISRDNSKNTLYLQMNSLRAEDTAVYYCAKDTSGWYGDGMDVWGRGTLVTVSS
VL: DIQMTQSPSTLSASIGDRVTITCRASEGIYHWLAWYQQKPGKAPKLLIYKASSLASGAPSRFSGSGSGTDFTLTISSLQPDDFATYYCQQYSNYPLTFGGGTKLEIKR
notes: scFv (one chain), soluble from the bacterial periplasm in the screening; also called Her2_S1R3C1_BMV_1H11
Turning to B8, the binding result in test [1] is “binds”.

B9: S1R3B2_BMV_1G2 (scFv, V domains shown)
VH: QVQLVQSGAEVKKPGSSVKVSCKASGYTFTSYGISWVRQAPGQGLEWMGWISAYNGNTNYAQKLQGRVTMTTDTSTSTAYMELRSLRSDDTAVYYCARVPGVSGSYPDYYYMDVWGKGTLVTVSS
VL: B8 VL
notes: also called Her2_S1R3B2_BMV_1G2
For the molecule B9, the binding result in test [2] is “binds”.

B10: S1R3B1_BMV_1H11 (scFv, V domains shown)
VH: EVQLVQSGGGLVKPGGSLRLSCAASGFTFSSYGMHWVRQAPGKGLEWVAGIFYDGGNKYYADSVKGRFTISRDNSKNTLYLQMNSLRAEDTAVYYCARDRGYYYMDVWGKGTTVTVSS
VL: QSVLTQPPSVSGAPGQRVTISCTGRSSNIGAGHDVHWYQQLPGTAPKLLIYGDSNRPSGVPDRFSGSRSGTSASLAITGLQAEDEADYYCQSYDSSLRGSVFGGGTKVTVLG
notes: scFv (one chain), soluble from the bacterial periplasm in the screening; also called Her2_S1R3B1_BMV_1H11
With B10, the binding result in test [1] was “binds”.

B11: S1R2A_CS_1D3 (scFv, V domains shown)
VH: EVQLVQSGAEVKKPGASVKVSCKASGYSFTAFYIHWVRQAPGQGLEYLGWIDPNTGATKYAQRFQGRVIMTWDTSITTATMELSRLTSDDSAVYYCVRDLREWGYELSVEYWGRGTLVTVSS
VL: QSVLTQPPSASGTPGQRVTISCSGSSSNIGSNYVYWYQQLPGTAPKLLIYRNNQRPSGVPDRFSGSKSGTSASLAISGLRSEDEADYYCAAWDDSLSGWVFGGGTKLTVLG
As to B11, the binding result in test [2] was “binds”.

B12: S1R3B2_DP47_1E8 (scFv, V domains shown)
VH: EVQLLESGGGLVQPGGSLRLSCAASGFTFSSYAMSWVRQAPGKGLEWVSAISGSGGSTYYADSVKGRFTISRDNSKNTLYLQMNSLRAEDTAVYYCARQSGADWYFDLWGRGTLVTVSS
VL: QAVLTQPSAVSGAPGQRVTISCTGTSSNIGTNYLVHWYQQRPGTAPQLLVSGNNTRPSGVTDRFSVSKSATSASLAITGLQAEDEADYYCQTYDINLRVWVFGGGTKVTVLG
notes: also called Her2_S1R3B2_DP47_1E8
Take B12: the binding result in test [2] was “binds”.

B13: S1R3B1_BMV_1A10 (scFv, V domains shown)
VH: QMQLVQSGGGVVQPGRSLRLSCAASGFTFSSYGMHWVRQAPGKGLEWVAVISYDGSIKYYADSVKGRFTISRDNSKNTLYLQMNSLRAEDTGVYYCSKDRYSSGWYSSDAFDIWGRGTMVTVSS
VL: SSELTQDPAVSVALGQTVRITCQGDSLRSYYASWYQQKPGQAPVLVIYGKNNRPSGIPDRFSGSSSGNTASLTITGAQAEDEADYYCHSRDSSGNHVLFGGGTKLTVLG
notes: scFv (one chain), soluble from the bacterial periplasm in the screening; also called Her2_S1R3B1_BMV_1A10
Turning to B13, the binding result in test [1] is “binds”.

B14: S1R3B2_BMV_1H5 (scFv, V domains shown)
VH: EVQLVQSGGGLVRPGGSLRLSCAASGFSFSDYYMTWIRQIPGKGLEWVAVIWNDGSDRYYADSVKGRFTISRDNSKNTLFLQMSSLRDEDTALYYCVRGGPTASSGFDYWGRGTLVTVSS
VL: SSELTQPASVSGSPGQSITISCTGTSSDVGGYNYVSWYLQHPGKAPKLMIYEGSKRPSGVSNRFSGSKSGNTASLTISGLQAEDEADYYCSSYTTRSTRVFGGGTKLTVLG
notes: also called Her2_S1R3B2_BMV_1H5
As for B14, in test [2], the binding result is reported as “binds”.

B15: S1R3B1_BMV_1A1 (scFv, V domains shown)
VH: EVQLVQSGAEVKEPGASVKVSCKASGYDFSNYGFSWVRQAPGQGLEWMGWISSYNGYTNYAQRLQGRVTMTTDTSTSTAYMELRSLRSDDTAVYYCARDRGLGNWYFDLWGQGTLVTVSS
VL: B14 VL with S1Q, E3V, L39Q
notes: scFv (one chain), soluble from the bacterial periplasm in the screening; also called Her2_S1R3B1_BMV_1A1
As to B15, the binding result in test [1] was “binds”.

B16: S1R3A1_BMV_1G4 (scFv, V domains shown)
VH: QVQLVESGAEVKKPGASVKVSCKASGYTFTSYDINWVRQAPGQRLEWMGWINAGNGNTKYSQKFQGRVTITRDTSASTAYMELRSLRSDDTAVYYCARGRSYGHPYYFDYWGQGTLVTVSS
VL: B14 VL with S1Q, E3V, L39Q
notes: scFv (one chain), soluble from the bacterial periplasm in the screening; also called Her2_S1R3A1_BMV_1G4
For B16, the binding result in test [1] is given as “binds”.

B17: S1R3B1_BMV_1G11 (scFv, V domains shown)
VH: QVQLVQSGGGLVQPGGSLRLSCAASGFTFSTYAMSWARQAPGKGLEWVSSISGDGGRILDADSAKGRFTISRDNSKNTLYLQMNGLRVEDTALYYCARADGNYWGRGTMVTVSS
VL: B14 VL with S1Q, E3V, L39Q
notes: scFv (one chain), soluble from the bacterial periplasm in the screening; also called Her2_S1R3B1_BMV_1G11
On to B17, for which, in test [1], the binding result is reported as “binds”.
